The values below come from article PMC11352566, “Recombinant C-Terminal Catalytic Domain of Rat L-Gulono Lactone Oxidase Produced in Bacterial Cells Is Enzymatically Active” (Current Issues in Molecular Biology, 2024).

Substrate in the data set: O=C1O[C@H]([C@@H](O)CO)[C@H](O)[C@@H]1O
As to the kind of experiment: ascorbic acid formation, colorimetric kit; Lineweaver-Burk. Particulars: 50 mM potassium phosphate pH 7.0, 50 mM citrate, 1 mM DTT, 10 µM FAD, aerobic (O2), 37 °C. It counts as biochemical, Rattus norvegicus.

B1: fGULO (full-length rat GULO, fGULO-His) (Rattus norvegicus) (protein)
chain: MVHGYKGVQFQNWAKTYGCSPEVYYQPTSVEEVREVLALAREQKKKVKVVGGGHSPSDIACTDGFMIHMGKMNRVLQVDKEKKQITVEAGILLADLHPQLDEHGLAMSNLGAVSDVTVAGVIGSGTHNTGIKHGILATQVVALTLMTADGEVLECSESRNADVFQAARVHLGCLGIILTVTLQCVPQFHLQETSFPSTLKEVLDNLDSHLKRSEYFRFLWFPHTENVSIIYQDHTNKAPSSASNWFWDYAIGFYLLEFLLWTSTYLPCLVGWINRFFFWMLFNCKKESSNLSHKIFTYECRFKQHVQDWAIPREKTKEALLELKAMLEAHPKVVAHYPVEVRFTRGDDILLSPCFQRDSCYMNIIMYRPYGKDVPRLDYWLAYETIMKKFGGRPHWAKAHNCTQKDFEEMYPTFHKFCDIREKLDPTGMFLNSYLEKVFY
Turning to B1, the Michaelis constant (Km) is 53.5 ± 5 µM.

B2: cGULO (C-terminal catalytic domain of rat GULO, cGULO-His) (Rattus norvegicus) (protein)
chain: NRFFFWMLFNCKKESSNLSHKIFTYECRFKQHVQDWAIPREKTKEALLELKAMLEAHPKVVAHYPVEVRFTRGDDILLSPCFQRDSCYMNIIMYRPYGKDVPRLDYWLAYETIMKKFGGRPHWAKAHNCTQKDFEEMYPTFHKFCDIREKLDPTGMFLNSYLEKVFY
notes: C-terminal cytoplasmic (catalytic ALO) domain, 167 residues, lacks 273 N-terminal residues incl
As to B2, the Km was determined as 42 ± 6.3 µM.

A word on the Km: it is the concentration of substrate that gives half-maximal velocity.
